# B1: CPEB3 Ribozyme (parent)
# chain: UAACAGGGGGCCACAGCAGAAGCGUUCACGUCGCAGCCCCUGUCAGAUUCUGGUGAAUCUGCGAAUUCUGCUGUAUAUCUC
# Variants of: B1
# Assay: self-cleavage, relative activity (ratio to wild type); higher = more cleavage; in vitro, sequencing
# Summary of the method: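 Relative activity was defined as the cleaved/total read fraction for a variant divided by the same fraction for the unmutated ribozyme. CPEB3 self-cleaving ribozyme libraries were made by rounds of error-prone PCR, barcoded, and transcribed in vitro with T7 RNA polymerase for 5 hours at 37°C, and cleavage ran through transcription plus a 15 min DNase I step before EDTA. Illumina sequencing of template-switched reverse transcripts gave the reads, and DNA sequencing mapped the barcodes. Averages come from three batches, using variants with at least 5 reads.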
row,Variant,self-cleavage
1,C4G U51C,1.12
2,C4G U69C,0.95
3,A5G C79A,1.01
4,A5G C79U,0.92
5,A5C A21U,0.36
6,A5C A21G,0.69
7,A5G A28U,0.55
8,A5G A28C,0.61
9,A5G A28G,0.48
10,A5G G36U,0.72
11,A5G G36A,0.29
12,C4U U41C,1.07
13,C4U U41A,0.48
14,A5C U54C,1.09
15,A5C U54G,0.81
16,A5G G7U,0.39
17,A5G G7C,0.5
18,A5G G7A,0.6
19,A5C C68G,0.23
20,A5C A57C,0.52
21,A5C A57G,0.9
22,A5C U26C,0.58
23,A5C U26A,1.04
24,C4U A75G,1.15

row,Variant,self-cleavage
1,A5G A64G,0.58
2,A5G A64U,0.35
3,C4G U66A,0.79
4,A5G U58C,0.43
5,A5G U58A,0.24
6,C4U A20U,0.42
7,C4U A20C,0.21
8,C4U A20G,0.81
9,C4U A15U,0.86
10,C4U A15G,1.17
11,A5G U66G,0.44
12,A5G U66A,0.23
13,A5G U66C,0.38
14,A5G G55A,0.37
15,A5G G55C,0.65
16,A5G G55U,0.26
17,A5G C12A,0.4
18,A5G C12U,1.12
19,C4G U60C,0.68
20,A5C A35G,1.18
21,A5C A35U,0.54
22,C4U U48C,0.99
23,C4U A65G,0.43
24,A5C G46U,0.06

row,Variant,self-cleavage
1,A5G A65C,0.25
2,A5G A65G,0.39
3,A5G A65U,0.19
4,A5C A13U,1.22
5,A5C A13G,1.07
6,A5C G10A,0.09
7,C4U G55U,1.28
8,A5G G16U,0.54
9,A5G G16A,0.57
10,A5G G52A,1
11,A5G G52U,0.73
12,C4U U25G,0.45
13,C4U U25A,0.31
14,C4U U25C,0.2
15,A5C A65G,0.44
16,A5G U51G,0.68
17,A5G U51C,0.68
18,A5G U51A,0.63
19,A5C U25C,0.15
20,C4U C50A,1.17
21,A5C U43C,0.57
22,A5C U43G,0.38
23,A5C U43A,1.13
24,A5G G22A,0.24

row,Variant,self-cleavage
1,A5G G22C,0.34
2,A5G C62U,0.35
3,A5G C62G,0.14
4,A5G C62A,0.22
5,A5C C50A,0.8
6,C4U A5G,0.84
7,A5G C38A,0.44
8,A5G C38G,0.37
9,A5G C38U,0.46
10,A5C G9U,0.52
11,A5C G9A,0.41
12,A5G U76A,0.85
13,C4U C38A,0.54
14,C4U U66C,0.59
15,C4U C23G,0.53
16,A5G C59U,0.65
17,A5G C59A,0.2
18,C4U G33A,0.37
19,A5C G36A,0.31
20,A5C C37G,0.87
21,A5C C37U,0.76
22,A5G G53A,0.88
23,A5G G53C,0.8
24,A5G G53U,1.03

row,Variant,self-cleavage
1,A5G G33A,0.24
2,A5G G33C,0.38
3,A5G G33U,0.43
4,A5C U67C,0.22
5,A5C U67A,0.48
6,A5C U67G,0.27
7,C4U A21G,0.89
8,A5C A18G,0.53
9,C4G U72A,1.13
10,A5G A13C,0.76
11,A5G A13G,0.56
12,A5G A13U,0.98
13,C4U G9U,0.17
14,C4U A35G,1.29
15,C4U A35U,0.81
16,A5G U60G,0.35
17,A5G U60C,0.36
18,A5G U60A,0.31
19,C4G U67C,0.29
20,A5G G70A,0.32
21,A5G G70U,0.41
22,A5G G70C,0.25
23,A5G G46U,0.4
24,A5G C27A,0.44

row,Variant,self-cleavage
1,A5G C27U,0.13
2,A5G A45C,0.42
3,A5G A45U,0.36
4,A5G A45G,0.63
5,A5G U67A,0.39
6,A5G U67C,0.34
7,A5C C62U,0.13
8,A5G C29G,0.57
9,A5G C29U,0.26
10,C4U G8U,0.38
11,C4U G8A,0.28
12,C4U U54A,1.18
13,C4U U54C,1.15
14,A5G G30U,0.11
15,A5G G30A,0.51
16,A5G U48A,0.45
17,A5G U48C,0.57
18,A5G U48G,0.1
19,C4U U49C,0.69
20,A5C A45G,0.7
21,A5C A45U,0.59
22,A5G A57C,0.28
23,A5G A57G,0.64
24,A5G A57U,1.04

row,Variant,self-cleavage
1,A5G C39A,0.39
2,A5G C39U,0.67
3,A5G G10U,0.39
4,C4U C40U,0.86
5,C4U U31A,0.82
6,C4U U31C,1.11
7,A5C G63U,0.91
8,A5C G63C,0.95
9,A5G A75G,0.49
10,A5G A75U,0.83
11,A5G A75C,0.57
12,C4U U80C,1.19
13,A5G A18U,0.33
14,A5G A18C,0.48
15,A5G A18G,0.5
16,A5C C71U,0.57
17,A5C C23G,0.18
18,C4U G30A,0.22
19,A5C C29U,0.42
20,C4U U67C,0.42
21,C4U U67A,0.76
22,A5C U41G,0.35
23,A5C U41A,0.28
